Series [1] addresses T1, sclerostin loop 3-6 (sites 127-128 mutated) (UniProt Q9BQB4 135-169, G151A;E152A).
T1 chain: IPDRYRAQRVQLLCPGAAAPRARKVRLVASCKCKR
The series is described as follows: BLI. A general note: BLI is a label-free optical method that tracks binding on a fibre tip over time.

The target in a further series is sclerostin (UniProt Q9BQB4 24-213). The series is described as follows: BLI.
sclerostin, sequence (Q9BQB4 24-213): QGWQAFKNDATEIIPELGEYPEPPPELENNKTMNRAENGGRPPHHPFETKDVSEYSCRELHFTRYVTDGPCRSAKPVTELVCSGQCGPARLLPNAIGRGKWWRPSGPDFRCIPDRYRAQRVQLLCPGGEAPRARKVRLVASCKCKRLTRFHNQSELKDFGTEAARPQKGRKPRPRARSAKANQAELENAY

B1: Aptscl56 (ssDNA)
DNA: CGGGGTGTGGGTTCGTCGTTAGCTTGATTTGGCAGCTGCC
As usually defined, the Kd is a measure of binding affinity in units of concentration. Low values mean a tighter complex, high ones a looser complex. B1: the binding result in series [1] is given as “no binding”. Moreover, the Kd in the series with sclerostin was 68.6 nM.

The values are drawn from publication PMC10914587.
